Measurements as given in patent publication US20030065144A1.

Molecular target: UNC-49B GABA receptor subunit (UNC-49B.1 isoform) (C. elegans)
Assay: cell-based or functional assay

GABA concentration required to produce half-maximal channel activity (EC50), Xenopus oocytes injected with UNC-49B.1 mRNA, two-electrode voltage clamp [µM]	single main conductance state, single channel recordings in HEK-293 cells expressing UNC-49B alone [pS]	EC50 value for GABA, Xenopus oocytes injected with equal amounts of UNC-49B and UNC-49C RNA, two-electrode voltage clamp [µM]	single main conductance state, single channel recordings in HEK-293 cells transfected with UNC-49B and UNC-49C [pS]	Substance
43.7	37.5	–	–	UNC-49B GABA receptor subunit (UNC-49B.1 isoform)
–	–	108	30.9	UNC-49C GABA receptor subunit
